The record followed here is patent US5834244, “Factor VIIa inhibitors from Kunitz domain proteins” (Genentech, Inc., dated 1998).

No end group written: not given here.

For assay [1], the target named is TF-FVIIa complex in the PT assay (full length TF on 293 cell membranes with the Factor VII/VIIa of normal … (human, UniProt P08709)). Kind of assay: cell-based or functional assay.
A further assay deals with T1, human Factor XIIa (human, UniProt P00748).
T1 sequence 1: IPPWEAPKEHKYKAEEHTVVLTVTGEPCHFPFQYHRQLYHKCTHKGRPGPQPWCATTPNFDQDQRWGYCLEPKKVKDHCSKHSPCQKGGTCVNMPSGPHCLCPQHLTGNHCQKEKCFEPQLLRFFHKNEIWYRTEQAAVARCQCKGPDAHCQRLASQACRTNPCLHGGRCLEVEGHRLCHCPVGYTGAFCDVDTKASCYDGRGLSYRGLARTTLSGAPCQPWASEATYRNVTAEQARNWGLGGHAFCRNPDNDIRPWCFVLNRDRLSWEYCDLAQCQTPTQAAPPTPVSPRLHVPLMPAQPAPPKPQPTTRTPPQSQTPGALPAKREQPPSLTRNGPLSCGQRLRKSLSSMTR
T1 sequence 2: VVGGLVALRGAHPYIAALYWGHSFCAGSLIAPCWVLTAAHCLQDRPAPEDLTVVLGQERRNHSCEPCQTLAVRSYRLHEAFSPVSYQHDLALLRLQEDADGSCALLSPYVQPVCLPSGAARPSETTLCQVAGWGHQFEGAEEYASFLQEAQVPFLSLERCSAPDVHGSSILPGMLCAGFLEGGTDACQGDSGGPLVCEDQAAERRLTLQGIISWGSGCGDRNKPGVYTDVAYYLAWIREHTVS
Kind of assay: chromogenic enzyme inhibition assay, apparent Ki*.

The target in assay [2] is human activated protein C (human, UniProt P04070). The experiment in a line: chromogenic enzyme inhibition assay, apparent Ki*.
The next assay concerns the target human thrombin (human, UniProt P00734). Kind of assay: chromogenic enzyme inhibition assay, apparent Ki*.
The target of the next assay is human Factor Xa (human, UniProt P00742). Kind of assay: chromogenic enzyme inhibition assay, apparent Ki*.
Another assay deals with human plasmin (human, UniProt P00747). Kind of assay: chromogenic enzyme inhibition assay (plasmin 15 nM, S2251), apparent Ki*. Here is the method: (§1) Aliquots (25 μL) from each well of a microtiter plate containing the serially diluted inhibitors were transferred into new microtiter plates, each containing a different protease (100 μL) in the appropriate buffer. The proteases tested (protease concentration, buffer, substrate) were FVIIa (10 nM, Buffer A, 0.7 mM S2366), FXIa (1.0 nM, Buffer B containing 1 mg/ml BSA, 0.7 mM S2366), plasma kallikrein (3.5 nM, Buffer B, 0.5 mM S2302), and plasmin (15 nM, Buffer B, 1 mM S2251). Buffer A contains 50 mM Tris, pH 7.5, 100 mM NaCl, 10 mM CaCl_2, 0.5% BSA, 60 nM TF_1-243, and 1 mM CHAPS (Sigma). Buffer B contains 50 mM Tris, pH 7.5, 100 mM NaCl, 2 mM CaCl_2 and 0.005% Triton X-100.

Another assay deals with human plasma kallikrein (human, UniProt P03952). Kind of assay: chromogenic enzyme inhibition assay, apparent Ki* (value in FIG. 4). Here is the method:
as §1

B1: IV-32B (designed binder)
chain: VREVCSEQAEPGPCKALMKRWYFDVTEGKCAPFYYGGCYGNRNNFDTEEYCAAVCGSA
Regarding B1, the “fold prolongation of clotting time, PT assay in normal human plasma” value (shortened to “fold prolongation of clotting time”) in assay [1] is 1.4 fold prolongation at 40 µM inhibitor.

B2: APPI, Alzheimer's amyloid β-protein precursor inhibitor (other)
chain: VREVCSEQAETGPCRAMISRWYFDVTEGKCAPFFYGGCGGNRNNFDTEEYCMAVCGSA
modifications: not fully specified (bridges); ends and bridges not checked
For the molecule B2, in assay [1], the “fold prolongation of clotting time” value is 1.5 fold prolongation at 40 µM inhibitor. The Ki (in the assay with human Factor XIIa; in assay [2]; with human thrombin; with human Factor Xa) was above 10 µM each time. In addition, the binding result (with human Factor XIIa; in assay [2]; with human thrombin; in the assay with human Factor Xa) was “no binding (tested: >10 µM)” throughout.

B3: TF7I-C (designed binder)
chain: VREVCSEQAEPGPCRALILRWYFDVTEGKCAPFFYGGCYGNRNNFDTEEYCAAVCGSA
modifications: ends and bridges not checked; cysteine pairing not given here
B3: in the assay with human plasmin, the Ki came to 0.04 µM. Further, the binding result with human plasma kallikrein is “binds”; in the assay with human Factor XIIa, “no binding (tested: >10 µM)”; in assay [2], “no binding (tested: >10 µM)”.

B4: IV-49C (designed binder)
chain: VREVCSEQAEPGPCRALMKRWYFDVTEGKCAPFIYGGCYGNRNNFDTEEYCAAVCGSA
B4: the “fold prolongation of clotting time” value in assay [1] was 2.5 fold prolongation at 40 µM inhibitor.

B5: IV-54C (designed binder)
chain: VREVCSEQAEPGPCRALMKRWYFDVTEGKCAPFVYGGCYGNRNNFDTEEYCAAVCGSA
In the case of B5, the “fold prolongation of clotting time” value in assay [1] was 2.1 fold prolongation at 40 µM inhibitor.
